From PMC8960804

Target: RexT, redox-sensing transcriptional regulator of Nostoc (Anabaena) sp. PCC 7120, tag-free, reduced (Nostoc (Anabaena) sp. PCC 7120)
Assay: SEC; HiLoad 16/600 Superdex 200 pg, 50 mM HEPES pH 7.5, 100 mM NaCl, 5% v/v glycerol, 2 mM DTT

stoichiometry N: 2
Substance: RexT, redox-sensing transcriptional regulator of Nostoc (Anabaena) sp. PCC 7120, tag-free, reduced (natural protein)
